One block for each binder: values may come before it.
Tests used:
Conditions in all cases: both partners purified
[1] = molecular target: T1, full-length Rrp5 (recombinant) (S. cerevisiae, UniProt Q05022 1-1729); experiment: pull-down; 5 uM Has1 with 3 uM His-Rrp5 on Ni-NTA resin, pull-down buffer, 4°C; eluted with 300 mM imidazole
T1 construct: Rrp5, S. cerevisiae, 193 kDa, 12 S1 domains followed by seven TPR repeats; The His6 tag is named only for the Has1 pull-down (His6-Rrp5, His-Rrp5); I take both to be the one Rrp5-FL preparation; also called Rrp5-FL; Rrp5_FL
T1 sequence (Q05022 whole entry, the tested form may be a part): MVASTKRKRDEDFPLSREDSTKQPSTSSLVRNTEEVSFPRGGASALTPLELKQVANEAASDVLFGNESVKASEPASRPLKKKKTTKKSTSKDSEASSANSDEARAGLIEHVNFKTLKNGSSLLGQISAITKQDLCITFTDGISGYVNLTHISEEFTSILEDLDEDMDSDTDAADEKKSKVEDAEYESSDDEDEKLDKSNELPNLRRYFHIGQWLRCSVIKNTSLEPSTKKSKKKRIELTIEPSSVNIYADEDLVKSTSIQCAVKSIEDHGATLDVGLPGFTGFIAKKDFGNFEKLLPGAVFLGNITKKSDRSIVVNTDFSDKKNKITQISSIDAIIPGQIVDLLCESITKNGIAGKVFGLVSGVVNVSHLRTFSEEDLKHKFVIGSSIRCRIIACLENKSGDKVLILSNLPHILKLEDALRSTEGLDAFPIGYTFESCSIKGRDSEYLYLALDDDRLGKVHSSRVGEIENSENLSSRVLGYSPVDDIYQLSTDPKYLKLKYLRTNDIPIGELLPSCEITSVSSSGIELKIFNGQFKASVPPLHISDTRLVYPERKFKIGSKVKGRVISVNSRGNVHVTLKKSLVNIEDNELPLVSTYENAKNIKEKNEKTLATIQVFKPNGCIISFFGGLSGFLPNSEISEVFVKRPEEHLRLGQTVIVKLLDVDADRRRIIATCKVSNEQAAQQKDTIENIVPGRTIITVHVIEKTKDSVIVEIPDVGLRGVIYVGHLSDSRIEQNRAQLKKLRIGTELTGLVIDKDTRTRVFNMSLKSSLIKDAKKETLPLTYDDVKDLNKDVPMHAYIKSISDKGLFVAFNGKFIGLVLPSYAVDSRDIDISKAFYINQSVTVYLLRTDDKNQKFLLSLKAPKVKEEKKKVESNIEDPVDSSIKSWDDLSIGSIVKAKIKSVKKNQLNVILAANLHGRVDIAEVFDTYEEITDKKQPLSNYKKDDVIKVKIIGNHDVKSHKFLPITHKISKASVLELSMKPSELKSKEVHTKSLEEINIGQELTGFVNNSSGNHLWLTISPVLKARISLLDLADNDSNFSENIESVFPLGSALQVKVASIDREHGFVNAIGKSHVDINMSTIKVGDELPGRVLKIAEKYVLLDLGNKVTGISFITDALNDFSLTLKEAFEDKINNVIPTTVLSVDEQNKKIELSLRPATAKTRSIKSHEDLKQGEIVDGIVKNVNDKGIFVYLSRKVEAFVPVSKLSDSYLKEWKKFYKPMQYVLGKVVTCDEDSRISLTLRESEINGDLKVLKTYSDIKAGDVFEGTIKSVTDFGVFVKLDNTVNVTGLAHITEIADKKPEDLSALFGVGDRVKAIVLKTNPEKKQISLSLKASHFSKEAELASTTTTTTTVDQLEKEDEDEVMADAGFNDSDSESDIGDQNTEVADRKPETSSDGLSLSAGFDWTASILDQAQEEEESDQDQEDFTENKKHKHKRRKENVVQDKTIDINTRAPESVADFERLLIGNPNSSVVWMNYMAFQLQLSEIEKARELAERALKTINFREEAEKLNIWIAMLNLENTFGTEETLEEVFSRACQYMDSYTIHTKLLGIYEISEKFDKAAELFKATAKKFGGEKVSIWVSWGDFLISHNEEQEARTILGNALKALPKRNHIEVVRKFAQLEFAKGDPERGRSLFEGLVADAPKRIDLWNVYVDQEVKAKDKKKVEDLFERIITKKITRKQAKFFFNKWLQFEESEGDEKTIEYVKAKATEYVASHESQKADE

[2] = molecular target: T1, full-length Rrp5 (recombinant); experiment: negative-stain single-particle EM reconstruction; 100 pmol Rok1 incubated with Rrp5 in 300 mM NaCl, 10 mM MgCl2, 30 mM MES pH 6.7, 20°C, 2 h; GraFix glycerol/glutaraldehyde gradient; uranyl formate stain
[3] = molecular target: T1, full-length Rrp5 (recombinant); experiment: pull-down; 5 uM FL Rrp5 or Rrp5 fragments with 3 uM GST-Rok1 (or GST) on GSH sepharose; 150 mM NaCl, 30 mM HEPES/NaOH pH 7.5, 5% glycerol; 4°C; eluted with 20 mM reduced glutathione
[4] = molecular target: T1, full-length Rrp5 (recombinant); experiment: pull-down; 10 uM FL Rrp5 or Rrp5_TPR2+7 with 15 uM MBP-Rok1 (or MBP) on amylose resin; 150 mM NaCl, 30 mM HEPES/NaOH pH 7.5, 5% glycerol; 4°C; eluted with 20 mM maltose

binding result [1]: binds
B1: Has1 (recombinant) (enzyme)
chain: not shown
notes: Has1, DEAD-box protein, HAS1 gene cloned from yeast into pSV272 as a TEV-cleavable His6-MBP fusion; also called recombinant Has1; source: E. coli Rosetta2 (DE3), purified (Ni-NTA, MonoS, Superdex S-200)

binding result [2]: binds
B2: Rok1 (recombinant) (enzyme, S. cerevisiae, UniProt P45818 1-564, looked up)
chain: MDIFRVLTRGASVKKESGPKAKAADYSVINGNDENHKEDNNESQIVKELDFFRNKRIISKVEDDREKTTENDSPNKEEKSGNDDGLIKPVITNTVEASALRKSYKGNVSGIDIPLPIGSFEDLISRFSFDKRLLNNLIENGFTEPTPIQCECIPVALNNRDVLACGPTGSGKTLAFLIPLVQQIIDDKQTAGLKGLIISPTKELANQIFIECFKLSYKIFLEKKRPLQVALLSKSLGAKLKNKVVSDKKYDIIISTPLRLIDVVKNEALDLSKVKHLIFDEADKLFDKTFVEQSDDILSACREPSLRKAMFSATIPSNVEEIAQSIMMDPVRVIIGHKEAANTNIEQKLIFCGNEEGKLIAIRQLVQEGEFKPPIIIFLESITRAKALYHELMYDRINVDVIHAERTALQRDRIIERFKTGELWCLICTDVLARGIDFKGVNLVINYDVPGSSQAYVHRIGRTGRGGRSGKAITFYTKQDSVAIKPIINVMKQSGCEVSEWMDKMAKMTRKEKESIKNGKAHKERKQITTVPKMDKAKRRRQQEMIAASKRRKNEELSKKHFSK
notes: Rok1, DEAD-box protein, 64 kDa; Named Rok1 without a tag, in contrast to MBP-Rok1 and GST-Rok1; also called recombinant Rok1

binding result [3]: binds
B3: glutathione S-transferase (GST)-tagged Rok1 (enzyme, S. cerevisiae, UniProt P45818 1-564, looked up)
chain: B2 chain
notes: Rok1, DEAD-box protein; also called GST-Rok1; source: E. coli Rosetta2 (DE3), recombinant; purification not described here

binding result [4]: binds
B4: maltose binding protein (MBP)-tagged Rok1 (enzyme, S. cerevisiae, UniProt P45818 1-564, looked up)
chain: B2 chain
notes: Rok1, DEAD-box protein; also called MBP-Rok1; source: E. coli Rosetta2 (DE3), recombinant; purification not described here
